Here are results for 27 molecules from publication PMC3594281.

The target in data set [1] is T1, Hyper-IL-6 (sIL-6R/IL-6 fusion) (UniProt P08887 20-323+P05231:30-212, internal_change). The experiment in a line: filter binding.
In data set [2] the target is T1, Hyper-IL-6 (sIL-6R/IL-6 fusion). The experiment in a line: filter binding. The source holds these as a separate data set.
Data set [3] has the same target. The experiment in a line: filter binding. This is another data set of the same source.
In data set [4] the target is IL-6 (human, UniProt P05231 30-212). The experiment in a line: filter binding.
Data set [5] concerns the target thrombin (UniProt P00734;P00734 328-363;364-622). Kind of data set: filter binding.
Data set [6] concerns the target T1, Hyper-IL-6 (sIL-6R/IL-6 fusion). The experiment in a line: SPR. A general note: In SPR one partner is held on a chip, and binding of the other changes the refractive index at the surface.

Like-named read-outs stand apart in the source and are kept apart here.

Chain of IL-6 (P05231 30-212): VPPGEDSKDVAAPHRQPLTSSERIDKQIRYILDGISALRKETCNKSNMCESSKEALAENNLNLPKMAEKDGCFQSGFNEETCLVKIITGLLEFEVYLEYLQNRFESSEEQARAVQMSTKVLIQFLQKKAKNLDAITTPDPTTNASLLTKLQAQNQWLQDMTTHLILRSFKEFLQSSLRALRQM

Regarding GGGTGGGTGGGAGGGT (structured_DNA) [AID-1-T12A], binding in data set [1] was characterised by a dissociation constant (Kd) of 234 ± 71 nM.

As for GGGAGGGAGGGAGGGA (structured_DNA) [AID-1+A], the Kd (as a rule, the concentration at which binding is half-saturated) in data set [2] amounted to 691 ± 271 nM.

GGTTGGTGTGGTTGG (structured_DNA) [TBA]: in data set [3], the binding result is recorded as “no binding”.

In the case of GGGTGGGTGGGTGGGT (structured_DNA) [AID-1 (T30923)], the Kd came out at 209 ± 96 nM in data set [1] and 490 nM in data set [6]. Further, the binding result in data set [4] and in data set [5] was “no binding” in each case.

In turn, GGGUGGGUGGGUGGG (structured_RNA) [rAID-1-U] displayed a Kd in data set [1] of 199 ± 65 nM.

For GGTGGTGGTGGT (structured_DNA) [d(GGT)4], the binding result in data set [3] was “no binding”.

GGGTGGGTGGGTGGGA (structured_DNA) [AID-1-T16A] had a Kd in data set [1] of 693 ± 392 nM.

On to GGGGAGGCUGUGGUGAUUG (structured_RNA) [AIR-3A-G17/18U], for which the binding result in data set [1] was “no binding”.

Turning to GTTTGTGTTTGTGTGT (ssDNA) [NK3], the binding result in data set [1] is “no binding”.

For the molecule GGGGTGGGGTGGGGTGGGGT (structured_DNA) [d(GGGGT)4], the binding result in data set [3] was “no binding”.

With GTGTGGGTGGGTGGGT (structured_DNA) [AID-1-G2T], the binding result in data set [3] is “no binding”.

Take GGTTGGGTGGGTGGGT (structured_DNA) [AID-1-G3T]: the binding result in data set [3] is recorded as “no binding”.

With GGGTGGGTGGGTGTGT (structured_DNA) [AID-1-G14T], in data set [3], the binding result was “no binding”.

For the molecule GGGTGAGTGGGTGGGT (structured_DNA) [AID-1-G6A], in data set [3], the binding result is reported as “no binding”.

Take TGGTGGGTGGGTGGGT (structured_DNA) [AID-1-G1T]: in data set [3], the binding result is “no binding”.

For GGGTGGGAGGGTGGGT (structured_DNA) [AID-1-T8A], binding in data set [1] was characterised by a dissociation constant (Kd) of 316 ± 59 nM.

Turning to GTGTGTGTGTGTGTGT (ssDNA) [PolyGT], the binding result in data set [3] was “no binding”.

For GGGUGUGUGGGUGGGU (structured_RNA) [rAID-1-G6U], the binding result in data set [1] was “no binding”.

Consider GGGGAGGCUGUGGUGAGGG (structured_RNA) [AIR-3A], for which, in data set [1], binding was put at a Kd of 82 ± 9 nM.

The molecule GGGAGGGTGGGTGGGT (structured_DNA) [AID-1-T4A] had a Kd in data set [1] of 420 ± 160 nM.

GGGTGGGTGTGTGGGT (structured_DNA) [AID-1-G10T]: the binding result in data set [3] is recorded as “no binding”.

Molecule GGGUGGGUGGGUGGGU (structured_RNA) [rAID-1] came in with an equilibrium dissociation constant (Kd) in data set [1] of 208 ± 53 nM.

With GGGGAGGCUGUGGUGAUGG (structured_RNA) [AIR-3A-G17U], the binding result in data set [3] was “no binding”.

Turning to GTGGTGGGTGGGTGGGT (structured_DNA) [T30175], the Kd in data set [1] turned out to be 293 ± 94 nM. The binding result in data set [4] is “no binding”.

For the molecule GGGTGGGTGGGTGGG (structured_DNA) [AID-1-T], in data set [1], the affinity, expressed as Kd, was 127 ± 79 nM.

On to GGGTGAGTGGGTGAGT (ssDNA) [AID-1-G6A/G14A], for which, in data set [3], the binding result is on record as “no binding”.

Regarding GGGTGTGTGGGTGGGT (structured_DNA) [AID-1-G6T], in data set [3], the binding result is on record as “no binding”.
